Data reported in article PMC8391806 (2021).

Molecular target: p38α kinase (residues 1–360 of human p38α) (human, UniProt Q16539 1-360)
Test: ITC

p38α kinase (residues 1–360 of human p38α), sequence (Q16539 whole entry, the tested form may be a part): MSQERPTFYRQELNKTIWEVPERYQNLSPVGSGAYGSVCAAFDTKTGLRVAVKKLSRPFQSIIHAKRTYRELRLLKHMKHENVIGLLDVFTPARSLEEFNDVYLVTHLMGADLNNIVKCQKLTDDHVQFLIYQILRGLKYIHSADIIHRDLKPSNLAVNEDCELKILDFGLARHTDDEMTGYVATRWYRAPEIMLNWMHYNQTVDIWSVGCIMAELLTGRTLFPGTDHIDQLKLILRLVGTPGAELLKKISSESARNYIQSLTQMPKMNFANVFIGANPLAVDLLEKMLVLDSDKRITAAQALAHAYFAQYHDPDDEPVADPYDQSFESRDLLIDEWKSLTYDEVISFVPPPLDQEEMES

Kd: 4.1 µM
B1: regulatory domain of MKK4 (residues 12–86) with N-terminal thioredoxin and 6xHis tag, unlabeled, for ITC (domain or fragment)
chain: SGGGSGSGTPGPVGSPAPGHPAVSSMQGKRKALKLNFANPPFKSTARFTLNPNPTGVQNPHIERLRTHSIESSGK
